Data reported in article PMC5394236.

Biological target: GST fused recombinant Pparγ LBD protein (UniProt P37231)
Test: co-immunoprecipitation (IP: Flag) with immunoblot band intensity quantification
Details: lysates of HEK293 cells transfected with Flag-Lrp1β-Wt or Mut mixed with GST fused recombinant Pparγ LBD protein; n=3; parent: est. 100; read off a plot

UniProt P37231, sequence (P37231 whole entry, the tested form may be a part): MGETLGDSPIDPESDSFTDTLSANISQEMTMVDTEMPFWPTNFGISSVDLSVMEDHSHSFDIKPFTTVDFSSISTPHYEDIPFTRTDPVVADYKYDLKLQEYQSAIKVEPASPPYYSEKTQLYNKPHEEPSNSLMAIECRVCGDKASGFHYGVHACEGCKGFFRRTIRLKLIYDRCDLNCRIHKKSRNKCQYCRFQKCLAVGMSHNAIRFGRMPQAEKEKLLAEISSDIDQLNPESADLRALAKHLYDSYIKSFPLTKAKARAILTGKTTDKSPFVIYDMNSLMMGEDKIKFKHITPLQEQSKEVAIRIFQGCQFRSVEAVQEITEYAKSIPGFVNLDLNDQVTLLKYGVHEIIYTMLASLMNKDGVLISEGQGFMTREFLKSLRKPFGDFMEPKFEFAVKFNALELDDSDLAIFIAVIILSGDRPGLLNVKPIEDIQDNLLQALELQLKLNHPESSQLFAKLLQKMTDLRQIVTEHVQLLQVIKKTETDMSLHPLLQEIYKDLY

Flag-Lrp1β-Wt (VGGLL) L4487A; L4488A
percent of parent: 13%
